Measurements: IntAct's records for PubMed 20062059

B1: GTP-binding protein RHO1 (Saccharomyces cerevisiae), P06780 (parent)
chain: MSQQVGNSIRRKLVIVGDGACGKTCLLIVFSKGQFPEVYVPTVFENYVADVEVDGRRVELALWDTAGQEDYDRLRPLSYPDSNVVLICFSIDLPDSLENVQEKWIAEVLHFCQGVPIILVGCKVDLRNDPQTIEQLRQEGQQPVTSQEGQSVADQIGATGYYECSAKTGYGVREVFEAATRASLMGKSKTNGKAKKNTTEKKKKKCVLL

Variants of: B1
Details: with sec3_yeast SEC3, P33332
Chain of sec3_yeast SEC3, P33332 (P33332 whole entry): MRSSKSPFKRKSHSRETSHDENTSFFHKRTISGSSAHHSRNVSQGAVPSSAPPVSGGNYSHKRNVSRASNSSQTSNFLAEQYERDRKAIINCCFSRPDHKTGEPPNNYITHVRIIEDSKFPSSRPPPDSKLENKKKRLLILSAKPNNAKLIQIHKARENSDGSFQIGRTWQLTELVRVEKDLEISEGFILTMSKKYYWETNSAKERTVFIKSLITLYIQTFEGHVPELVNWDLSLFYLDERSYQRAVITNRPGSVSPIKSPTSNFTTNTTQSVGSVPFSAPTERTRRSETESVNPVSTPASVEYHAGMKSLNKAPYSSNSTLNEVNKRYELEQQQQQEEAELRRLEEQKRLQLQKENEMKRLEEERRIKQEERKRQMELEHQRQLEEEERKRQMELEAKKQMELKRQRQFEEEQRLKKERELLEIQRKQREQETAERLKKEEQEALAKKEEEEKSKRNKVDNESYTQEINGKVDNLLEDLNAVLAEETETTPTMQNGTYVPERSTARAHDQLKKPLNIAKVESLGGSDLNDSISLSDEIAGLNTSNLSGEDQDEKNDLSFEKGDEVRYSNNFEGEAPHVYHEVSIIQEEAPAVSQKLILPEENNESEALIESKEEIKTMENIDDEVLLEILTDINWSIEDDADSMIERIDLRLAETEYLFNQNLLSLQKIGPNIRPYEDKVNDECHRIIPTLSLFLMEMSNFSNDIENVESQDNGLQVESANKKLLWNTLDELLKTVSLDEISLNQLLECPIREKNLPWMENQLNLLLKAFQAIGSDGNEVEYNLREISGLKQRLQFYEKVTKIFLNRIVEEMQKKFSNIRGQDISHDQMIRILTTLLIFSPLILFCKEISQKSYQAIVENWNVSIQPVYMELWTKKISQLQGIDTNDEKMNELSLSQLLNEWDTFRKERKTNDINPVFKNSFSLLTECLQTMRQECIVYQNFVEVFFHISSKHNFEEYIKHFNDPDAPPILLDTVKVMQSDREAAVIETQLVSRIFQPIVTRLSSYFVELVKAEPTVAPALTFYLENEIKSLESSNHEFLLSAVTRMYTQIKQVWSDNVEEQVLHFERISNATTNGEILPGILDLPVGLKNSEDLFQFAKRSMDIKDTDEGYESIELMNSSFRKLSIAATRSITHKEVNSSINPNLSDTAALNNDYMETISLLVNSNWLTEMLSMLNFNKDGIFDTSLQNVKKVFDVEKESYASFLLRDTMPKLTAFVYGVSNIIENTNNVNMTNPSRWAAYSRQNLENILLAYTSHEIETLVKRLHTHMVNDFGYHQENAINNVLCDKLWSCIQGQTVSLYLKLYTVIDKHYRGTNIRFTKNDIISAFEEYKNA

Variant	effect of a mutation on the interaction
MSQQVGNSIRRKLVIVGDGACGKTCLLIVFSKGQFPEVYVPTVFENYVADVEVDGRRVELALWDTAGAEDYDRLRPLSYPDSNVVLICFSIDLPDSLENVQEKWIAEVLHFCQGVPIILVGCKVDLRNDPQTIEQLRQEGQQPVTSQEGQSVADQIGATGYYECSAKTGYGVREVFEAATRASLMGKSKTNGKAKKNTTEKKKKKCVLL [Q68A]	disrupting interaction
MSQQVGNSIRRKLVIVGDGACGKTCLLIVFSKGQFPEVYVPTVAENYVADVEVDGRRVELALWDTAGQEDYDRLRPLSYPDSNVVLICFSIDLPDSLENVQEKWIAEVLHFCQGVPIILVGCKVDLRNDPQTIEQLRQEGQQPVTSQEGQSVADQIGATGYYECSAKTGYGVREVFEAATRASLMGKSKTNGKAKKNTTEKKKKKCVLL [F44A]	disrupting interaction
MSQQVGNSIRRKLVIVGDGACGKTCLLIVFSKGQFPEVYVPTAFENYVADVEVDGRRVELALWDTAGQEDYDRLRPLSYPDSNVVLICFSIDLPDSLENVQEKWIAEVLHFCQGVPIILVGCKVDLRNDPQTIEQLRQEGQQPVTSQEGQSVADQIGATGYYECSAKTGYGVREVFEAATRASLMGKSKTNGKAKKNTTEKKKKKCVLL [V43A]	disrupting interaction
MSQQVGNSIRRKLVIVGDGACGKTCLLIVFSKGQFPEVYVPTVFENYVADVEVDGRRVELALWDTAGQEDYDALRPLSYPDSNVVLICFSIDLPDSLENVQEKWIAEVLHFCQGVPIILVGCKVDLRNDPQTIEQLRQEGQQPVTSQEGQSVADQIGATGYYECSAKTGYGVREVFEAATRASLMGKSKTNGKAKKNTTEKKKKKCVLL [R73A]	disrupting interaction
MSQQVGNSIRRKLVIVGDGACGKTCLLIVFSKGQFPEVYVPTVFENYVADVEVDGRRVELALWDTAGQEDADRLRPLSYPDSNVVLICFSIDLPDSLENVQEKWIAEVLHFCQGVPIILVGCKVDLRNDPQTIEQLRQEGQQPVTSQEGQSVADQIGATGYYECSAKTGYGVREVFEAATRASLMGKSKTNGKAKKNTTEKKKKKCVLL [Y71A]	disrupting interaction
